According to the supplement of paper PMC12764529:
± gives the half width of the 95% confidence interval.

Tests used:
[1] = folding stability dG unfold from trypsin proteolysis; higher = more stable
Procedure, shortened: (§1)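 Designed mini-proteins (under 80 residues, no cysteine) in a PA-tagged cDNA display construct were digested with trypsin and chymotrypsin. Each protease was used at 11 concentrations (threefold dilutions) plus a no-protease condition, followed by sequencing. K50 was inferred by Bayesian fitting of sequencing counts, and unfolding free energy was derived against a sequence-predicted unfolded-state K50 and a shared folded-state K50, per protease or combined. Only designs with AlphaFold2 dimer inter-PAE above 15 were kept.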

[2] = folding stability dG unfold from chymotrypsin proteolysis; higher = more stable
Procedure, shortened: as §1

[3] = folding stability dG unfold (combined trypsin and chymotrypsin); higher = more stable
Procedure, shortened: as §1

For “SAGGSAGGSAGGKAKIVDVKIEKEGNTVTIEVKIEVDGKLIATAKVRFTGPDGKLEIEIESAGGSAGGSAGG [r7_133_TrROS_Hall]”, the “folding stability dG unfold” value [1] was 3.25 ± 0.16 kcal/mol, the “folding stability dG unfold” value [2] was 2.9 ± 0.27 kcal/mol and the “folding stability dG unfold” value [3] was 3.15 ± 0.15 kcal/mol.

With “SAGGSAGGGYAEFETTAVLPDGRVYRAKIVLSPDPDIVKIRLFSPEGEEEIELHPDDPLLLTPGSAGGSAGG [r6_926_TrMRF]” the “folding stability dG unfold” value [1] was 1.46 ± 0.034 kcal/mol, the “folding stability dG unfold” value [2] was 1.66 ± 0.062 kcal/mol and the “folding stability dG unfold” value [3] was 1.62 ± 0.051 kcal/mol.

With “SAGGSAGGSAGGPILKITLELSPEEIEELAKALGLKVKKVEKEKNKDGKLRVTIYIELKSAGGSAGGSAGGS [r10_999_TrROS_Hall]” the “folding stability dG unfold” value [1] was 2.12 ± 0.085 kcal/mol, the “folding stability dG unfold” value [2] was 3.24 ± 0.057 kcal/mol and the “folding stability dG unfold” value [3] was 2.81 ± 0.078 kcal/mol.

For “SAGMYLVKITVTNEDGEKKEITVLVEAETEEEAREAAEELARELAEKYPEKIVEVKVEVVKLPPEVEPSAGG [r19_335_TrROS_Hall]”, the “folding stability dG unfold” value [1] was 4.12 ± 0.19 kcal/mol, the “folding stability dG unfold” value [2] was 4.77 ± 0.16 kcal/mol and the “folding stability dG unfold” value [3] was 4.98 ± 0.66 kcal/mol.

In the case of “SAGGSAGGSAGKIELTNIQVWPGPNGRPWISMTISFPDGPVTIWIPFDNPDNIEIEIKPGSAGGSAGGSAGG [r17_64_TrROS]”, the “folding stability dG unfold” value [1] is reported as 2.63 ± 0.1 kcal/mol, the “folding stability dG unfold” value [2] is reported as 3.02 ± 0.043 kcal/mol and the “folding stability dG unfold” value [3] is reported as 2.82 ± 0.084 kcal/mol.

In the case of “SAGGMPTTSSSAVKLDGGSDSVTTTTLPDGSRVVYIVSSDGKVYKATVTGGTTTWTEVKTVPPAELSSAGGS [r16_48_JUSTAS]”, the “folding stability dG unfold” value [1] is reported as 1.53 ± 0.031 kcal/mol, the “folding stability dG unfold” value [2] is reported as 2.406 ± 0.018 kcal/mol and the “folding stability dG unfold” value [3] is reported as 2.13 ± 0.051 kcal/mol.

In the case of “SAGGSAGGDIEVRPVGVVPTPDGRLVRVEEVTFPETGRTLLVAVDLEPGRVYVFDPETGEWREESAGGSAGG [r6_114_TrMRF]”, the “folding stability dG unfold” value [1] is reported as 0.502 ± 0.091 kcal/mol, the “folding stability dG unfold” value [2] is reported as 1.76 ± 0.02 kcal/mol and the “folding stability dG unfold” value [3] is reported as 1.41 ± 0.075 kcal/mol.

In the case of “SAGGMVLEVEFTGPLSEVEAFIEELKAKPGVELLSVEIEVKPLPGPPVRYRVKLEVKIYDPENPVLLSAGGS [r8_374_JUSTAS]”, the “folding stability dG unfold” value [1] is reported as 2.26 ± 0.22 kcal/mol, the “folding stability dG unfold” value [2] is reported as 3.07 ± 0.077 kcal/mol and the “folding stability dG unfold” value [3] is reported as 2.74 ± 0.37 kcal/mol.

For “SAGGKTIYFPISEARNFLKEAIDNGLDNIRIEVFNGDKPREIDIPPGNLDDLIDNIPPNSWVQIEPKSAGGS [r16_636_TrROS]”, the “folding stability dG unfold” value [1] was -0.645 ± 0.095 kcal/mol, the “folding stability dG unfold” value [2] was 0.536 ± 0.089 kcal/mol and the “folding stability dG unfold” value [3] was 0.221 ± 0.072 kcal/mol.

With “MKIRVEITVRNPDGEELKIEIVLSLEELEELRKEGKPLTLEELKALIEERARKLAEELDLEVEIKIVEIEPS [r1_174_TrROS_Hall]” the “folding stability dG unfold” value [1] was 4.11 ± 0.35 kcal/mol, the “folding stability dG unfold” value [2] was 5.06 ± 0.89 kcal/mol and the “folding stability dG unfold” value [3] was greater than 6 kcal/mol.

In the case of “SAGGSAGGMPVEIEILTPDNLLPTFTIPDPEEAEKIKSVEVFGDRFIKITLGDKEIVIEVYPDNSAGGSAGG [r6_206_TrMRF]”, the “folding stability dG unfold” value [1] is reported as 1.48 ± 0.061 kcal/mol, the “folding stability dG unfold” value [2] is reported as 0.559 ± 0.063 kcal/mol and the “folding stability dG unfold” value [3] is reported as 1.01 ± 0.12 kcal/mol.

For “SAGGEKTYMVRIDIEYRTPGKPREIDLMVPIKSPEQAREQLDKIADFLAKEHPDNWRIKVEIYPMEDSAGGS [r16_475_TrROS]”, the “folding stability dG unfold” value [1] was 1.28 ± 0.18 kcal/mol, the “folding stability dG unfold” value [2] was 2.49 ± 0.068 kcal/mol and the “folding stability dG unfold” value [3] was 2.16 ± 0.29 kcal/mol.

For “SAGGSADENKKPMYFIMVKIEIKFGGKDHKIEIMIPLDNVEKLAKNIAEELGMEIKDVTVSLYPIDSAGGSA [r15_535_TrROS]”, the “folding stability dG unfold” value [1] was 2.79 ± 0.13 kcal/mol, the “folding stability dG unfold” value [2] was 4.18 ± 0.12 kcal/mol and the “folding stability dG unfold” value [3] was 3.77 ± 0.15 kcal/mol.

For “SAGGSAGGSAGGDEEAIKEAAAAAPKDTTTVPVLLPDGKEVTLEVTWHPDGSRTITVRQSAGGSAGGSAGGS [r10_1017_JUSTAS]”, the “folding stability dG unfold” value [1] was -0.0882 ± 0.15 kcal/mol, the “folding stability dG unfold” value [2] was 1.6 ± 0.098 kcal/mol and the “folding stability dG unfold” value [3] was 1.15 ± 0.072 kcal/mol.

In the case of “SAGGSAGGSMIEVVKFPNGITLEYFPETNTYRAFNPSTNTTTTFPPGVSFEEAVEAVKKGNLVSAGGSAGGS [r12_832_JUSTAS]”, the “folding stability dG unfold” value [1] is reported as 4.1 ± 0.091 kcal/mol, the “folding stability dG unfold” value [2] is reported as 3.82 ± 0.017 kcal/mol and the “folding stability dG unfold” value [3] is reported as 3.88 ± 0.041 kcal/mol.

In the case of “SAGGEELMKDHPNFIFITIEIRHPGGGKEKPKFMIMIPNNTPEELIDELRDFLPPGYKIKDVEIHYMDSAGG [r13_849_TrROS]”, the “folding stability dG unfold” value [1] is reported as 2.41 ± 0.13 kcal/mol, the “folding stability dG unfold” value [2] is reported as 1.72 ± 0.096 kcal/mol and the “folding stability dG unfold” value [3] is reported as 2.14 ± 0.17 kcal/mol.

For “DTVTIVVEGMSEEEVLEKARAAAEELAKEGKTVEIVVKLSPEALKKAGVEKVEEVEDEETGLLVIKVEVKPS [r1_467_TrROS_Hall]”, the “folding stability dG unfold” value [1] was 1.04 ± 0.13 kcal/mol, the “folding stability dG unfold” value [2] was 0.599 ± 0.07 kcal/mol and the “folding stability dG unfold” value [3] was 0.684 ± 0.28 kcal/mol.
